Values of other authors in paper PMC3651761.

What was measured:
[1] = biological target: Met receptor (Homo sapiens) (UniProt P08581)
IGF-IR (Homo sapiens) = IGF-IR (Homo sapiens) (UniProt P08069)
Chain of UniProt P08069 (P08069 31-736, chain 1 of 2): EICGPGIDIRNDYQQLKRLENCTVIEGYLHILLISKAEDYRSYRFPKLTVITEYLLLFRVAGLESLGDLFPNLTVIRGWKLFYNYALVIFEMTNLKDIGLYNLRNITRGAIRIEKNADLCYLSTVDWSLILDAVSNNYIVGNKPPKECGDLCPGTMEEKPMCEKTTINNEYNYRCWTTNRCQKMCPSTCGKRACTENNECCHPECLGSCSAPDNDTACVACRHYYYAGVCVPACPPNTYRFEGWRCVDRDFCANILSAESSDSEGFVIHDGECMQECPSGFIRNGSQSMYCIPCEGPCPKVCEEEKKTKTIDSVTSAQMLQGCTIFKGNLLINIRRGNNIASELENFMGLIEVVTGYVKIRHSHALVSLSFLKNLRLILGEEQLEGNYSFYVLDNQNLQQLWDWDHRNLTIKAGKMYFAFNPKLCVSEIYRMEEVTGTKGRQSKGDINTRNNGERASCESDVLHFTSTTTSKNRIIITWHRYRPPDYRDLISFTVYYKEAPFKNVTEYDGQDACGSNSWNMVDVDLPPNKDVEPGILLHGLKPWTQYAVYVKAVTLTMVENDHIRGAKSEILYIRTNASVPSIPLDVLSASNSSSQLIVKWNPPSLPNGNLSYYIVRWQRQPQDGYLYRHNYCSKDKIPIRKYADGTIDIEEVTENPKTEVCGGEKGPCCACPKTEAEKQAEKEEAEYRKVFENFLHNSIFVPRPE
Chain of UniProt P08069 (P08069 741-935, chain 2 of 2): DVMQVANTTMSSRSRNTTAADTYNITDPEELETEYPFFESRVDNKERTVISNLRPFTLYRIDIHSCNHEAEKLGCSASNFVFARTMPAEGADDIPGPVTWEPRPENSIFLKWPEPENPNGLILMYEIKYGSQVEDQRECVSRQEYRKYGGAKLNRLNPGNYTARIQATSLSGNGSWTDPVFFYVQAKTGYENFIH

Chain of UniProt P08581 (P08581 25-932): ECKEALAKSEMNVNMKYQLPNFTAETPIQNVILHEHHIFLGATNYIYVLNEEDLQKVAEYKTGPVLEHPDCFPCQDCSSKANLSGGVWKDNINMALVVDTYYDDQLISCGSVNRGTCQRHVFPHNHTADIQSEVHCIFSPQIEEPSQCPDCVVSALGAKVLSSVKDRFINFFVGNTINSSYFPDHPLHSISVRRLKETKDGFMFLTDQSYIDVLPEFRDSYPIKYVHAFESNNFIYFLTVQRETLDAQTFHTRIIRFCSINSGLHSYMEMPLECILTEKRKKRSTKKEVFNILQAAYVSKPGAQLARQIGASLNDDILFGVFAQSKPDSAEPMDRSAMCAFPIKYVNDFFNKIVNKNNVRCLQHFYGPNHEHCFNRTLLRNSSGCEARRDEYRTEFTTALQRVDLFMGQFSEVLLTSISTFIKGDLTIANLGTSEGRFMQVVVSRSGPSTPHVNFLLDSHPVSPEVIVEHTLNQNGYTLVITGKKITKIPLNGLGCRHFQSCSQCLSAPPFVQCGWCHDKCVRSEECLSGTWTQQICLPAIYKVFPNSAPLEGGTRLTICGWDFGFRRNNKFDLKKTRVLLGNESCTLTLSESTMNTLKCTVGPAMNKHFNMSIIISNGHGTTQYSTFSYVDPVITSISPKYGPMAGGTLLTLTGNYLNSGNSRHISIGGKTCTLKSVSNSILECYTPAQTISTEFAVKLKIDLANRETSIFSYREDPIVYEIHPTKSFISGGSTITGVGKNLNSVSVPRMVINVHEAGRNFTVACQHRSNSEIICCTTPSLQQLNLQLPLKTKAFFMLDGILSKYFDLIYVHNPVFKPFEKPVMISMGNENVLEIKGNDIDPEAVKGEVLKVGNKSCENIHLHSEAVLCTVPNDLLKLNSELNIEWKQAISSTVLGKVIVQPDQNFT

Kd [1]: 2 nM
Kd (IGF-IR (Homo sapiens)): 18 nM
Substance: Decorin (from UniProt P07585)
